This is an account of results in patent US20210188989A1 (SYSTIMMUNE, published 2021).

Broadly, the koff is the rate constant with which the complex falls apart.

To fix the notation:
B1: 419D9 (antibody, human IgG1, kappa, V domains shown)
VH: QSLEESGGDLVKPGASLTLTCTASGFSFSSRHYMCWVRQAPGEGLEWIACIYTGSSGTPHYASWAKGRFTISQTSSTTVTLQMTSLTAADTATYFCSSEGNLWGPGTLVTVSS
VL: AQVLTQTASPVSAAVGGTVTINCQSSQSVYSNWLSWYQQKPGQPPKRLIYSASTLASGVPSRFKGSGSGTQFTLTISDLECDDAATYYCAGGYNTVTDTFAFGRGTEVEVKR
notes: one of the 34 chimeric antibodies; rabbit variable regions on human IgG1 and human kappa; also called 419D9 chimeric rabbit/human IgG
B2: 416G1 (antibody, human IgG1, kappa, V domains shown)
VH: QSVEESGGRLVTPGTPLTLTCTVSGFTINSYHMIWVRQAPGEGLEYIGFINDGGFTYYASWAKGRFIISRTSTTVDLKMTSLTVADTATYFCARGVDGTSYPDLWGPGTLVTVSS
VL: DVVMTQTPASVSEPVGGAVTIKCQASQSIGSDLAWYQQKPGQPPKLLIYRASTLASGVSSRFKGSGSGTEFTLTISDLECADAATYYCQCIYYGSDDVIYHTFGGGTEVVVKR
notes: one of the 34 chimeric antibodies; rabbit variable regions on human IgG1 and human kappa; also called 416G1 chimeric rabbit/human IgG
B3: 418E10 VHv1VLv1 (antibody, human IgG1, kappa, V domains shown)
VH: EVQLVESGGGLVQPGGSLRLSCAASGFSLSTYYMSWVRQAPGKGLEWIGSIYDSGAAYYATSAKGRFTISRDNSKNTLYLQMNSLRAEDTAVYYCARDPINNAIWGQGTLVTVSS
VL: DIQMTQSPSTLSASVGDRVTITCQASQSIGSNLNWYQQKPGKAPKLLIYYVSTLASGVPSRFSGSGSGTEFTLTISSLQPDDFATYYCLGVWNYWGDDGTAFGGGTKVEIKR
notes: one of the humanized antibodies; also called 418E10 humanized
B4: 418E4 VHv1VLv1 (antibody, human IgG1, kappa, V domains shown)
VH: EVQLVESGGGLVQPGGSLRLSCAASGFSLSSYYMSWVRQAPGKGLEWIGSIYASGSAYYASSAKGRFTISRDNSKNTLYLQMNSLRAEDTAVYYCARDPINNDIWGQGTLVTVSS
VL: DIQMTQSPSTLSASVGDRVTITCQASQSIATNLNWYQQKPGKAPKLLIYYTSSLASGVPSRFSGSGSGTEFTLTISSLQPDDFATYYCLGVWNYWGDDGTAFGGGTKVEIKR
notes: one of the humanized antibodies; also called 418E4 humanized
B5: 418H5 VHv2VLv1 (antibody, human IgG1, kappa, V domains shown)
VH: EVQLVESGGGLVQPGGSLRLSCTASGIDLSAYHMSWVRQAPGKGLEYIGMIGSSGTIHYANSAKGRFTISKDNTKNTVDLQMNSLRAEDTAVYYCARDSYNSDYAFNLWGQGTLVTVSS
VL: DIQMTQSPSSVSASVGDRVTITCQSSPSVYKNNQLAWYQQKPGKAPKLLIYLASTLASGVPSRFSGSGSGTDFTLTISSLQPEDFATYYCAGGYSSSSDTAFGGGTKVEIKR
notes: one of the humanized antibodies; also called 418H5 humanized
B6: 416F8 VHv3VLv1 (antibody, human IgG1, kappa, V domains shown)
VH: QSLVESGGGLVQPGGSLRLSCAASGFSLSNYYMNWVRQAPGKGLEYIGIISSSGSAYYASSAKGRFTISRDNSKNTLYLQMNSLRAEDTAVYYCARGDYGMDLWGQGTLVTVSS
VL: DIQMTQSPSSLSASVGDRVTITCQSSQTVYNNNLLSWYQQKPGKVPKLLIYYASTLAFGVPSRFSGSGSGTDFTLTISSLQPEDVATYYCQGGYSGWIYVFGGGTKVEIKR
notes: one of the humanized antibodies; also called 416F8 humanized
B7: 464C11 VHv1VLv1 (antibody, human IgG1, kappa, V domains shown)
VH: EVQLVESGGGLVQPGPSLRLSCTASGFSLSHYWMTWVRQAPGKGLEYIGFINVGGDTSYASSVKGRFTISRDDSKSIAYLQMNSLKTEDTAVYYCGRGGLTFGWDLWGQGTLVTVSS
VL: DIQMTQSPSTLSASVGDRVTITCQSSQSVYSNSFLSWYQQKPGKAPKLLIYSASDLASGVPSRFSGSGSGTEFTLTISSLQPDDFATYYCAGVYSDNTYVFGGGTKVEIKR
notes: one of the humanized antibodies; also called 464C11 humanized
B8: 411H11 VHv1VLv1 (antibody, human IgG1, kappa, V domains shown)
VH: EVQLVESGGGLVQPGGSLRLSCAASGFTISSHHMIWVRQAPGKGLQYIGFINDGDYTYYTNSAKGRFTISRDNSKNTLYLQMNSLRAEDTAVYYCARGVDGTSYPGLWGQGTLVTVSS
VL: DVVMTQSPSSVSASVGDRVTITCQASQSIGADLAWYQQKPGKAPKLLIYRASTLASGVPSRFSGSGSGTDFTLTISSLQPEDFATYYCQAIYYGTDDVIYHTFGGGTKVEIKR
notes: one of the humanized antibodies; also called 411H11 humanized
B9: 416G1 VHv1VLv1 (antibody, human IgG1, kappa, V domains shown)
VH: EVQLVESGGGLVQPGGSLRLSCAASGFTINSYHMIWVRQAPGKGLEYIGFINDGGFTYYASSAKGRFTISRDNSKNTLYLQMNSLRAEDTAVYYCARGVDGTSYPDLWGQGTLVTVSS
VL: DVVMTQSPSSVSASVGDRVTITCQASQSIGSDLAWYQQKPGKAPKLLIYRASTLASGVPSRFSGSGSGTDFTLTISSLQPEDFATYYCQSIYYGSDDVIYHTFGGGTKVEIKR
notes: one of the humanized antibodies; also called 416G1 humanized
B10: 472E4 VHv1VLv1 (antibody, human IgG1, kappa, V domains shown)
VH: EVQLVESGGGLVQPGGSLRLSCAASGFSLNNNAISWVRQAPGKGLEWVAIIQNTGTTDYARSAKGRFTISRDNSKNTLYLQMNSLRAEDTAVYYCARGYGFESELVIWGQGTLVTVSS
VL: DIQMTQSPSSLSASVGDRVTITCQSSQSVYNNNALAWYQQKPGKVPKLLIYLASTLASGVPSRFSGSGSGTDFTLTISSLQPEDVATYYCLGVYNDDVDNGFGGGTKVEIKR
notes: one of the humanized antibodies; also called 472E4 humanized
B11: 413F3 VHv1VLv1 (antibody, human IgG1, kappa, V domains shown)
VH: EVQLVESGGGLVQPGGSLRLSCAASGIDFSSNYMCWVRQAPGKGLEWIACIYGDSSDNSYSASSAKGRFTISRDNSKNTLYLQMNSLRAEDTAVYYCARSGYSYLGYFNLWGQGTLVTVSS
VL: DIQMTQSPSSLSASVGDRVTITCQASQSIYSNLAWYQQKPGKVPKLLIYSTSTLASGVPSRFSGSGSGTDFTLTISSLQPEDVATYYCQNYYGSSTDSYGNPFGGGTKVEIKR
notes: one of the humanized antibodies; also called 413F3 humanized
B12: 419D9 VHv3VLv3 (antibody, human IgG1, kappa, V domains shown)
VH: EVQLLESGGGLVQPGGSLRLSCTASGFSFSSRHYMCWVRQAPGKGLEWIACIYTGSSGTPHYASSAKGRFTISQDNSKNTVTLQMNSLRAEDTAVYYCAREGNLWGQGTLVTVSS
VL: DIQMTQSPSTLSASVGDRVTITCQSSQSVYSNWLSWYQQKPGKAPKRLIYSASTLASGVPSRFSGSGSGTEFTLTISSLQPDDFATYYCAGGYNTVTDTFAFGGGTKVEIKR
notes: one of the humanized antibodies; also called 419D9 humanized
B13: 460C3 VHv1VLv1 (antibody, human IgG1, kappa, V domains shown)
VH: EVQLLESGGGLVQPGGSLRLSCAASGIDFSRRYYMCWVRQAPGKGLEWIACIYTGSRDTPHYASSAKGRFTISRDNSKNTLYLQMNSLRAEDTAVYYCAREGSLWGQGTLVTVSS
VL: DIQMTQSPSTLSASVGDRVTITCQSSQSVYSNWFSWYQQKPGKAPKLLIYSASTLASGVPSRFSGSGSGTEFTLTISSLQPDDFATYYCAGGYNTVIDTFAFGGGTKVEIKR
notes: one of the humanized antibodies; also called 460C3 humanized
B14: 459F1 VHv1VLv1 (antibody, human IgG1, kappa, V domains shown)
VH: EVQLLESGGGLVQPGGSLRLSCAASGIDFSRRYYMCWVRQAPGKGLEWIACMYTGSRDTPHYASSAKGRFTISRDNSKNTLYLQMNSLRAEDTAVYYCAREGNLWGQGTLVTVSS
VL: DIQMTQSPSTLSASVGDRVTITCQSSQSVYSNWFSWYQQKPGKAPKLLIYSASTLASGVPSRFSGSGSGTEFTLTISSLQPDDFATYYCAGGYNTVTDTFAFGGGTKVEIKR
notes: one of the humanized antibodies; also called 459F1 humanized
B15: 420H6 VHv1VLv1 (antibody, human IgG1, kappa, V domains shown)
VH: EVQLLESGGGLVQPGGSLRLSCAASGIDFSSSYYMCWVRQAPGKGLEWIACIYTGGSGTPHYASSAKGRFTISRDNSKNTLYLQMNSLRAEDTAVYYCAREGSLWGQGTLVTVSS
VL: DIQMTQSPSTLSASVGDRVTITCQASQSVYSNWLSWYQQKPGKAPKLLIYSASTLASGVPSRFSGSGSGTEFTLTISSLQPDDFATYYCAGGYNTVIDTFAFGGGTKVEIKR
notes: one of the humanized antibodies; also called 420H6 humanized
B16: 420H5 VHv3VLv3 (antibody, human IgG1, kappa, V domains shown)
VH: QSLVESGGGLVQPGGSLRLSCAASGFSFSSNYWICWVRQAPGKGLEWIACIYVGSSGDTYYASSAKGRFTISRDNSKNTLYLQMNSLRAEDTAVYYCARDSSSYYMFNLWGQGTLVTVSS
VL: ALVMTQSPSTLSASVGDRVTINCQASEDIDTYLAWYQQKPGKAPKLLIFYASDLASGVPSRFSGSGSGTEFTLTISSLQPDDFATYYCQGGYYTSSADTRGAFGGGTKVEIKR
notes: one of the humanized antibodies; also called 420H5 humanized
B17: 470C6 VHv3VLv3 (antibody, human IgG1, kappa, V domains shown)
VH: QSLVESGGGLVQPGGSLRLSCAASGFSFTSSYYMCWVRQAPGKGLEWIACIYTGSSGSTYYANSAKGRFTISRDNSKNTLYLQMNSLRAEDTAVYYCARDSSSYYMFNLWGQGTLVTVSS
VL: ALVMTQSPSTLSASVGDRVTINCQASEDIDNYLAWYQQKPGKAPKLLIFYASDLASGVPSRFSGSGSGTEFTLTISSLQPDDFATYYCQGGYYTSSTDTRGAFGGGTKVEIKR
notes: one of the humanized antibodies; also called 470C6 humanized
B18: 466F6 VHv2VLv5 (antibody, human IgG1, kappa, V domains shown)
VH: RSLVESGGGLVQPGGSLRLSCTASGFTISSYHMQWVRQAPGKGLEYIGTISSGGNVYYASSARGRFTISRPSSKNTVDLQMNSLRAEDTAVYYCARDSGYSDPMWGQGTLVTVSS
VL: DVVMTQSPSSVSASVGDRVTITCQASQNIRTYLSWYQQKPGKAPKLLIYAAANLASGVPSRFSGSGSGTDFTLTISDLEPGDAATYYCQSTYLGTDYVGGAFGGGTKVEIKR
notes: one of the humanized antibodies; also called 466F6 humanized

For one assay, the target named is T1, recombinant human 4-1BB extracellular domain protein (human, UniProt Q07011 24-186).
T1 construct: extracellular domain; Analyte in the Octet assay; also called CD137; TNFRSF9
Put plainly: Octet BLI; chimeric IgG from transfection supernatant on anti-human Fc biosensor; recombinant human 41BB; column kdis(1/s) Human. The source says: (§1) The heavy and light chain expression plasmids generated from each well were transiently co-transfected to produce rabbit/human chimeric antibodies. Recombinant antibody supernatants were confirmed to contain antibodies specific for human and cynomolgus 4-1BB using bio-layer interferometry analysis on a ForteBio Octet Red 96 instrument. Anti-human Fc biosensors (Pall ForteBio) were used to capture antibodies in the supernatants. Association to human or cynomolgus 4-1BB was observed by real-time interferometry by placing the biosensors in wells containing recombinant human or cynomolgus 4-1BB extracellular domain protein. Dissociation was measured after transfer of the biosensors into wells containing 10× kinetics buffer (Pall ForteBio). The software provided by the manufacturer was used to analyze the interferometry data. A summary of the primary BCC screening data and the corresponding screening data for 34 recombinant chimeric rabbit/human IgG antibodies is shown in FIG. 2.
In general terms: In BLI a coated tip is dipped into the sample, and binding shifts an interference pattern.
For the molecule B1, the koff is 0.00063 s⁻¹. The same measure, in the same setting: for B2 the value was 0.0014 s⁻¹.

The target in a further assay is T1, recombinant human 4-1BB extracellular …. The assay can be described thus: Octet, binding off-rate kdis; the sheet names no species of 41BB, paragraph 86: 'binding to human and recombinant 4-1BB by octet assay'.
On to B3, for which the koff was determined as 0.000958 s⁻¹. The same measure, in the same setting: as for B4, the figure is 0.00277 s⁻¹; as for B5, 0.00245 s⁻¹; as for B6, 0.00645 s⁻¹. The same measure, in the same setting: for B7 the value was 0.000784 s⁻¹. With B8, the koff stood at 0.00179 s⁻¹.

As to B9, the koff worked out at 0.00166 s⁻¹. The same measure, in the same setting: as for B10, the figure is 0.00265 s⁻¹.

For B11, the koff was 0.00224 s⁻¹. On the same count and under the same terms, as for B12, the figure is 0.00284 s⁻¹; as for B13, 0.000728 s⁻¹; as for B14, 0.00131 s⁻¹.

In the case of B15, the koff turned out to be 0.00128 s⁻¹. On the same count and under the same terms, as for B16, the figure is 0.00178 s⁻¹; as for B17, 0.00183 s⁻¹. Same read-out and setting: for B18 the value was 0.00254 s⁻¹.

Another assay has as its target T2, recombinant cynomolgus 4-1BB extracellular domain protein (cynomolgus, UniProt A9YYE7 24-186).
T2 construct: Analyte in the Octet assay
T2 sequence: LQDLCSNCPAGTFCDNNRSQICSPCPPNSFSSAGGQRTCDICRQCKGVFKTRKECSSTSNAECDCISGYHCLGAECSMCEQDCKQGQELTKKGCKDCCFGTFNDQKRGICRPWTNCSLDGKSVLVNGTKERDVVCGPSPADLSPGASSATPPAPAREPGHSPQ
Put plainly: Octet BLI; chimeric IgG from transfection supernatant on anti-human Fc biosensor; recombinant cynomolgus 41BB; column kdis(1/s) Cynomolgus.
Source text: as §1
As to B1, the koff was 0.0014 s⁻¹. Same read-out and setting: for B2 the value was 0.0019 s⁻¹.
